Target: T1, GST full-length Sp7 (mouse, UniProt Q8VI67 1-428)
T1 construct: Sp7 (Osterix, Osx), mouse cDNA, full length; also called GST-Sp7; Osterix
Assay: co-IP; purified GST fusion proteins incubated together, immunoprecipitated with anti-Sp7, anti-Dlx3 or anti-GCN5 antibody and protein G agarose beads, IgG as negative control, detected by Western blotting
Settings: both partners purified

T1 sequence (Q8VI67 whole entry): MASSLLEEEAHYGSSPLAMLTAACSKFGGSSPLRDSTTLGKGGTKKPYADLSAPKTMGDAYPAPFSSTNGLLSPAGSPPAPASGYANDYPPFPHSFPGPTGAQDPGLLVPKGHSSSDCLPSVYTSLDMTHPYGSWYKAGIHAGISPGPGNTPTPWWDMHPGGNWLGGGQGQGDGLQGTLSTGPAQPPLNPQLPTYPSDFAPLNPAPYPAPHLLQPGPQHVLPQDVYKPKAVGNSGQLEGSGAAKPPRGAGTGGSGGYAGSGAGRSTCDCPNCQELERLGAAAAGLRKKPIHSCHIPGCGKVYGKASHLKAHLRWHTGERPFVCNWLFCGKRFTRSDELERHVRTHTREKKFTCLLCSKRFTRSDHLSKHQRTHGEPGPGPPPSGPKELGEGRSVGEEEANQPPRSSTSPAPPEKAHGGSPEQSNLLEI

- binding result: binds
B1: GST full-length Dlx3 (natural protein)
chain: not shown
notes: Dlx3, mouse cDNA, full length; also called GST-Dlx3
